In one data set the test system is rat primary hepatocytes. Kind of data set: cellular apoB100 protein expression in primary rat hepatocytes. It is filed as cell-based. As to conditions: 50 ng/mL, 24 hours. As for the experimental part: (§1) Primary Cells: Fresh wild-type rat and mouse primary heptaocytes were supplied by CellzDirect (Invitrogen, NC) in a 6-well collagen coated plate. Upon arrival, the storage media was removed and incubation media (Williams E Medium, phenol red free, with incubation supplement pack, Gibco, NC) was added according to manufactures' instructions. The cells were incubated at 37° C. with 5% CO2 for 16 hours prior to human resistin (50 ng/mL) treatment for 24 hours. Cryopreserved plateable human hepatocytes, metabolism qualified from multiple normal human donors, were supplied by CellzDirect (Invitrogen, NC). Upon arrival, the cells (4-8 million in 1 mL), according to the manufacturer's instruction, were added to 48 mL warmed thawing medium (CHRM® Medium, Invitrogen, NC) and centrifuged at 100×g for 10 min at room temperature. The pellet was re-suspended in 4 mL plating medium (Williams E Medium, phenol red free, with maintenance supplement pack and 10% FBS, Gibco, NC). The cells were stained by Trypan Blue (Sigma, Canada) and counted by a haemocytometer, followed by seeding 1×10^6 cells/well in a 6-well collagen coated plate (CellzDirect, Invitrogen, NC). The cells were incubated at 37° C. with 5% CO2 for 4 hours to allow the cells to adhere. The plating media was replaced and cell incubated for 16 hours prior to human resistin treatment for 24 hours. […]

Data set [1] concerns microsomal triglyceride transfer protein (MTP). As to the kind of experiment: MTP protein expression and activity assay. To be noted: 50 ng/mL, 24 hours, HepG2 cells. The format is cell-based, human. The method, then: Cell monolayers were washed twice with ice-cold PBS and once with 5 ml of 1 mM Tris-HCl, pH 7.6, 1 mM EGTA, and 1 mM MgCl2 at 4° C. Cells were then incubated for 2 min at room temperature in 5 ml of ice-cold 1 mM Tris-HCl, pH 7.6, 1 mM EGTA, and 1 mM MgCl2. The buffer was aspirated, and 0.5 ml of the same buffer was added to cells. Cells were scraped and collected in ice-cold tubes, vortexed, and centrifuged (SW55 Ti rotor, 50,000 rpm, 10° C., 1 h), and supernatants were used for MTP assay using the MTP fluorometric activity assay kit (Chylos Inc., NY). The triglyceride transfer activity of MTP is presented as % transfer/h/mg protein.
Further tests were conducted to investigate mechanisms by which human resistin stimulated increased hepatocyte expression and secretion of apoB protein. […] It was first determined whether human resistin inhibits apoB degradation through the classic proteosome-dependent degradation pathway by adding the optimal dose of human resistin (50 ng/mL) to the proteosome-dependent inhibitor of apoB degradation, lactacystin, at the optimal dose and time (10 μM, 24 hours). An increase in the cellular expression and secretion of apoB in HepG2 cells with lactacystin was observed, confirming its apoB degradation properties (FIG. 8A.). […]

For data set [2], the system named is primary mouse hepatocytes from PCSK9 knockout mice. Kind of data set: LDL receptor protein in PCSK9 knockout mouse hepatocytes. As to conditions: 50 ng/mL, 24 hours. It is filed as cell-based. As for the experimental part:
Animal ethics approval was received for the mouse protocols to follow. Primary mouse hepatocytes from PCSK9 knockout mice (C57Bl/6 background) or their wildtype littermates were isolated by perfusing the liver via the hepatic portal vein with a 5 mM EGTA in Leffert's Buffer (10 mM Hepes; 3 mM KCl, 0.13 M NaCl, 1 mM NaH2PO4, 10 mM D-glucose) followed by a 0.3 mg/ml collagenase in 0.0279% CaCl2. Cells were then filtered through a 70 uM nylon strainer and centrifuged at 760 rpm for 5 min. The cells were then passed through a CHRM gradient (Invitrogen, NC). Viability of cells ranged from 80 to 95%. […] Mouse LDL receptor and PCSK9 protein in cell lysates were measured via immunoblotting, as described above, using the following primary antibodies: mouse LDL receptor (abcam, MA), mouse PCSK9 (abcam, MA) and mouse GAPDH (Cell Signaling, MA). […]
To then more directly quantify the role of PCSK9 in the resistin mediated reduction in hepatocyte LDL receptor levels, hepatocytes isolated and cultured from wild-type mice were treated with resistin, and compared to resistin-treated hepatocytes from PCSK9 knockout mice.

For data set [3], the system named is mouse primary hepatocytes. Kind of data set: cellular apoB100 protein expression in primary mouse hepatocytes. The format is cell-based. As to conditions: 50 ng/mL, 24 hours. As for the experimental part: as §1

Data on one molecule can be found in patent publication US20130252987A1, “METHOD OF REGULATING PLASMA LIPOPROTEINS” (MCMASTER UNIVERSITY, priority 2010, published 2013).

B1: human resistin: recombinant lyophilized purified human resistin (Calbiochem); cysteine-rich cytokine, single 12 kDa band (protein)
chain: KTLCSMEEAINERIQEVAGSLIFRAISSIGLECQSVTSRGDLATCPRGFAVTGCTCGSACGSWDVRAETTCHCQCAGMDWTGARCCRVQP
Consider B1, for which, in the data set with rat primary hepatocytes, the “increase in cellular apoB protein expression versus untreated control cells” value was 40-50%. Besides, in data set [1], the MTP activity entry was “significant increases” and the “cellular MTP protein expression” value was “significant increases”. Besides, in data set [2], the “decline in LDL receptor expression compared to untreated hepatocytes” value was 15%. Besides, the “increase in cellular apoB protein expression versus untreated control cells” value in data set [3] is 40-50%.
